Target: LHC (LSD1-HDAC-CoREST complex) (Homo sapiens, UniProt O60341, UM171 and InsP6 present)
Test: dose-response titration of fluorescein-LHC

- Kd: 13 nM
B1: KBTBD4 (protein)
chain: MKGGNADSWQREKLASMESPEEPGASMDENYFVNYTFKDRSHSGRVAQGIMKLCLEEELFADVTISVEGREFQLHRLVLSAQSCFFRSMFTSNLKEAHNRVIVLQDVSESVFQLLVDYIYHGTVKLRAEELQEIYEVSDMYQLTSLFEECSRFLARTVQVGNCLQVMWLADRHSDPELYTAAKHCAKTHLAQLQNTEEFLHLPHRLLTDIISDGVPCSQNPTEAIEAWINFNKEEREAFAESLRTSLKEIGENVHIYLIGKESSRTHSLAVSLHCAEDDSISVSGQNSLCHQITAACKHGGDLYVVGGSIPRRMWKCNNATVDWEWCAPLPRDRLQHTLVSVPGKDAIYSLGGKTLQDTLSNAVIYYRVGDNVWTETTQLEVAVSGAAGANLNGIIYLLGGEENDLDFFTKPSRLIQCFDTETDKCHVKPYVLPFAGRMHAAVHKDLVFIVAEGDSLVCYNPLLDSFTRLCLPEAWSSAPSLWKIASCNGSIYVFRDRYKKGDANTYKLDPATSAVTVTRGIKVLLTNLQFVLA

Reference: PMC11882444 (2025)
